Paper PMC6175577 (2018)
Where two headings read alike, the source gives them in different places. Where no end group is shown, it is not given here. [ ]: non-standard residue; d: D form. pT = C[C@@H](OP(=O)(O)O)[C@H](N)C(=O)O; pS = N[C@@H](COP(=O)(O)O)C(=O)O

How the values were obtained:
Experiment in all cases: FP
[1] = target: T1, TOPBP1-BRCT0,1,2 K250E (BRCT2 phosphate-binding site mutant) ( (human and chicken TOPBP1 …))
T1 chain: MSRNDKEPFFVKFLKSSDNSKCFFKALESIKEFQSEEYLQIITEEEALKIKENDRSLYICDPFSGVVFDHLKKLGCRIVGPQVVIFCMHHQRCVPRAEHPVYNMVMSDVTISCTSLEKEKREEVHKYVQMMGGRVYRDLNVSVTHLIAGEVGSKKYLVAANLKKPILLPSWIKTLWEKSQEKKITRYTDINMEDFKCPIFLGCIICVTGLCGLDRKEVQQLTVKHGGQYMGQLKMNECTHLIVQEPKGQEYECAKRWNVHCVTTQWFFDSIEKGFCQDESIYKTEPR

[2] = target: T2, TOPBP1-BRCT0,1,2 segment, wild type (recombinant, fluorescence polarisation) ( (human and chicken TOPBP1 …))
T2 chain: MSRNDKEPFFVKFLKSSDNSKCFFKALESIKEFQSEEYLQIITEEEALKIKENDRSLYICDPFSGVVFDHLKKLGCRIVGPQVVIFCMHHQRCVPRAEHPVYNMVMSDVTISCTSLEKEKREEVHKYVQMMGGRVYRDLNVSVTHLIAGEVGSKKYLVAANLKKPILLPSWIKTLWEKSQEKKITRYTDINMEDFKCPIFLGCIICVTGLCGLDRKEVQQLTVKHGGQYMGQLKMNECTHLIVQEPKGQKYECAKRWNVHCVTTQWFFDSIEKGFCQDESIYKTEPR

TOPBP1-BRCT7,8 = target: T3, TOPBP1-BRCT7,8 ( (human and chicken TOPBP1 …))
T3 chain: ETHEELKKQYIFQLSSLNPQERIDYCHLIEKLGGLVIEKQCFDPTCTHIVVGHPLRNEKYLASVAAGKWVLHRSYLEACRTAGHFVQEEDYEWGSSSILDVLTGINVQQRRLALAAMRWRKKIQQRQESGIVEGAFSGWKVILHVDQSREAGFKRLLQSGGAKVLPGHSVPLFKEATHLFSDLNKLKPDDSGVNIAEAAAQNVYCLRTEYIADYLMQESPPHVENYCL

[3] = target: T2, TOPBP1-BRCT0,1,2 segment, wild type …
[4] = target: T4, Rad4-BRCT1,2 segment, wild type (recombinant, fluorescence polarisation) (S. pombe, UniProt P32372 1-186)
T4 chain: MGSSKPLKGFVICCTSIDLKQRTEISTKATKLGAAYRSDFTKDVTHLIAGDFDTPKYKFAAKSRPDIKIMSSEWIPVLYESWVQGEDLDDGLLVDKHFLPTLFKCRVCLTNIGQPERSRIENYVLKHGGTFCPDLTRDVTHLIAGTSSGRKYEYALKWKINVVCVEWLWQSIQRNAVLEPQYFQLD

S. pombe Nbs1 = target: T5, S. pombe Nbs1 (S. pombe, UniProt O43070 1-613)
T5 chain: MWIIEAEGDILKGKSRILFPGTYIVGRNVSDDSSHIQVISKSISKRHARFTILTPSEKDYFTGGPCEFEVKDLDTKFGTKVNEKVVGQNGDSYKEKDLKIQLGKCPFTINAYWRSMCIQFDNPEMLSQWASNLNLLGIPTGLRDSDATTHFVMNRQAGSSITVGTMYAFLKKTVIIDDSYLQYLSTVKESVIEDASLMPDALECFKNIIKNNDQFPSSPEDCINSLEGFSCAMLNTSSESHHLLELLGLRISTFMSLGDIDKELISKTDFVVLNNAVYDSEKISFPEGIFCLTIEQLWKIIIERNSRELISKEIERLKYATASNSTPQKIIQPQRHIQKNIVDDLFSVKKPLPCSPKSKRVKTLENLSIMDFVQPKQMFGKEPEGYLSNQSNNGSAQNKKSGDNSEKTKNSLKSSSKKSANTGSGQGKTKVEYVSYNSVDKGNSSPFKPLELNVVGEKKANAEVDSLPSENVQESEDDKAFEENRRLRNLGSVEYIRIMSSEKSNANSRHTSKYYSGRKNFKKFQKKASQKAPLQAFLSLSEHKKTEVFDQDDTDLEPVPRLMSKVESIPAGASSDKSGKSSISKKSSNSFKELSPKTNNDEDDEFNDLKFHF

TOPBP1-BRCT4,5 segment = target: T6, TOPBP1-BRCT4,5 segment ( (human and chicken TOPBP1 …))
T6 chain: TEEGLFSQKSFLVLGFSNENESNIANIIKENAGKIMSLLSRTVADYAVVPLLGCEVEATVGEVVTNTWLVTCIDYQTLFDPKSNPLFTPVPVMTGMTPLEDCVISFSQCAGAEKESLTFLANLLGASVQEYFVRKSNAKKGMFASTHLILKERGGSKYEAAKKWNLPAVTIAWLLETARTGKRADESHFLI

## fluorescein-GYGGPVLVKD[pT]PEDKYGI [RHNO1 pT202 fluorescein-labelled phosphopeptide]
[1]
  Kd: < 200 nM
[2]
  Kd: < 200 nM

## fluorescein-GYGEDESIYF[pT]PELYDPE [FANCJ pT1133 fluorescein-labelled phosphopeptide]
TOPBP1-BRCT7,8
  Kd: 140 nM

## fluorescein-GYGDIGVVEE[pS]PEKGDEI [Treslin pS1001 fluorescein-labelled phosphopeptide]
[3]
  Kd: 600 nM

## fluorescein-GYGLTKSVAE[pT]PVHKQIS (also: phosphothreonine at 969 (T5 or T11)) [Treslin pT969 fluorescein-labelled phosphopeptide]
[3]
  Kd: 940 nM

## fluorescein-GYGGVMTVPN[pT]PQKPNLQ (also: phosphothreonine at 113 (T7 or T11)) [Mdb1 pT113 fluorescein-labelled phosphopeptide]
[4]
  Kd: 1310 nM

## fluorescein-GYGVEGDHS[pS]D[pT]EEEVVS [Mdb1 pS216, pT218 fluorescein-labelled phosphopeptide (SDT site)]
S. pombe Nbs1
  Kd: 820 nM

## fluorescein-GYGDTDFVPP[pS]PEEIISA (also: phosphoserine at 304 (S11 or S17)) [BLM pS304 fluorescein-labelled phosphopeptide]
TOPBP1-BRCT4,5 segment
  Kd: 3460 nM
